From patent US20170000909A1, “ENZYME DIRECTED ASSEMBLY OF PARTICLE THERANOSTICS” (The Regents of the University of California, priority 2011, published 2017)
Where no end group is shown, it is not given here.

Biological target: T1, MMP-9 (Homo sapiens, UniProt P14780)
T1 construct: purchased Calbiochem
Experiment: MMP-9 cleavage efficiency assay (RP-HPLC)
Assay type: biochemical
Details: 120 μM, MMP-9 24 hrs, disappearance of peak at 29 minutes
Protocol: To 5 μL of enzyme was added 0.4 μL of a 24 mM π-aminophenyl mercuric acetate solution in freshly prepared 0.1 M NaOH. The enzyme solution was heated at 37° C. for 2 hrs prior to use.
120 μM of M1 (with respect to peptide) and 120 μM of Peptide-1 were treated with MMP-9 (100 μU, 1.25 μL) for 24 hrs. The control was performed using 120 μM of Peptide-1 without treatment with MMP-9. These samples were then analyzed by RP-HPLC following inactivation of MMP-9 at 65° C. for 20 mins (FIG. 21A). Peak A is the intact, full length Peptide-1 without treatment with MMP-9, and Peak B is the large fragment of Peptide-1 cleaved by MMP-9 as confirmed by MALDI-MS shown in FIG. 21B, left.

T1 sequence (P14780 107-707 limits assumed): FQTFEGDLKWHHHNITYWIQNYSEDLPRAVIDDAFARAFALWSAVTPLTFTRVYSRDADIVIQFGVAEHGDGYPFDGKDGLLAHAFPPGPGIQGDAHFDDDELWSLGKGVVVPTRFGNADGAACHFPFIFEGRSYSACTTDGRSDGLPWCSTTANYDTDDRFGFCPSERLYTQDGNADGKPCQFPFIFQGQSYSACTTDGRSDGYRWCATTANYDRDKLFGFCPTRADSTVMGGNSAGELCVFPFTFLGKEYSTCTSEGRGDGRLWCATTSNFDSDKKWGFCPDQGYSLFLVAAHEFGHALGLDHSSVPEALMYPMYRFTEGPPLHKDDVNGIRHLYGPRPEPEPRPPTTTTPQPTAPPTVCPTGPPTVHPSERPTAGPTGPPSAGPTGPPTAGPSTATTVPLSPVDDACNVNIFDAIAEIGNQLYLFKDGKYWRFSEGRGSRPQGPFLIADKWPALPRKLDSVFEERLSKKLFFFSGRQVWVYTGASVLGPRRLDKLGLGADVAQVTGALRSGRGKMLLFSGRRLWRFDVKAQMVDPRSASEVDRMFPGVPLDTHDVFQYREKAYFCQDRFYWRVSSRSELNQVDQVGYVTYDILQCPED

## GPLGLAGKWAAAAKAAAAK [Peptide-1]
  MMP-9 cleavage efficiency: quantitative
